Experimental data from the supplement of paper PMC10567573.

B1: ZNF263 (parent)
chain: VPGTQVGQGGKLWDPSVQSCKEGL

Variants of: B1
Test: protein stability index of a GFP-peptide fusion (GPS, HEK-293T) (PSI 1-6); higher = more stable
Details: c terminus: a fixed tail appended
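Note: lentivirally expressed fusions sorted by FACS into six bins by GFP to DsRed ratio, PSI derived from sequencing read proportions per bin multiplied by bin number.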

For VPGTQVGQGGKLWDPSVDSCKEGL, which protein stability index is on record?
The protein stability index was 4.54.

With VPGTQVGQGGKLWDPSVCSCKEGL as the variant, how does the protein stability index read?
The protein stability index was 3.63.

With VPGTQVGQGGKLWDPSVGSCKEGL as the variant, how does the protein stability index read?
Its protein stability index is 4.92.

Which protein stability index does the source give for VPGTQVGQGGKLWDPSVFSCKEGL here?
The protein stability index was 3.2.

For VPGTQVGQGGKLWDPSVHSCKEGL, which protein stability index is on record?
Its protein stability index is 3.89.

For VPGTQVGQGGKLWDPSVESCKEGL, which protein stability index is on record?
Its protein stability index is 4.7.

Which protein stability index does the source give for VPGTQVGQGGKLWDPSVISCKEGL here?
Its protein stability index is 4.01.

For VPGTQVGQGGKLWDPSVASCKEGL, which protein stability index is on record?
Its protein stability index is 3.46.

For VPGTQVGQGGKLWCPSVQSCKEGL, which protein stability index is on record?
Its protein stability index is 3.35.

With VPGTQVGQGGKLWMPSVQSCKEGL as the variant, how does the protein stability index read?
Its protein stability index is 3.36.

For VPGTQVGQGGKLWPPSVQSCKEGL, which protein stability index is on record?
The protein stability index was 3.44.

Which protein stability index does the source give for VPGTQVGQGGKLWFPSVQSCKEGL here?
The protein stability index was 3.07.

Which protein stability index does the source give for VPGTQVGQGGKLWRPSVQSCKEGL here?
The protein stability index was 3.05.

Which protein stability index does the source give for VPGTQVGQGGKLWKPSVQSCKEGL here?
The protein stability index was 3.51.

Which protein stability index does the source give for VPGTQVGQGGKLWTPSVQSCKEGL here?
The protein stability index was 3.79.

With VPGTQVGQGGKLWAPSVQSCKEGL as the variant, how does the protein stability index read?
The protein stability index was 4.14.

For VPGTQVGQGGKLWNPSVQSCKEGL, which protein stability index is on record?
Its protein stability index is 3.72.

For VPGTQVGQGGKLWGPSVQSCKEGL, which protein stability index is on record?
Its protein stability index is 4.1.

For VPGTQVGQGGKLWVPSVQSCKEGL, which protein stability index is on record?
The protein stability index was 3.87.

Which protein stability index does the source give for VPGTQVGQGGKLWHPSVQSCKEGL here?
The protein stability index was 4.08.

Which protein stability index does the source give for VPGTQVGQGGKLWQPSVQSCKEGL here?
The protein stability index was 4.09.

Which protein stability index does the source give for VPGTQVGQGGKLWWPSVQSCKEGL here?
Its protein stability index is 3.19.

With VPGTQVGQGGKLWEPSVQSCKEGL as the variant, how does the protein stability index read?
Its protein stability index is 3.78.

Which protein stability index does the source give for VPGTQVGQGGKLWIPSVQSCKEGL here?
Its protein stability index is 3.66.

With VPGTQVGQGGKLWSPSVQSCKEGL as the variant, how does the protein stability index read?
Its protein stability index is 3.99.

Which protein stability index does the source give for VPGTQVGQGGKLWYPSVQSCKEGL here?
The protein stability index was 3.11.

For VPGTQVGQGGKDWDPSVQSCKEGL, which protein stability index is on record?
The protein stability index was 4.89.

Which protein stability index does the source give for VPGTQVGQGGKQWDPSVQSCKEGL here?
The protein stability index was 4.72.

Which protein stability index does the source give for VPGTQVGQGGKIWDPSVQSCKEGL here?
Its protein stability index is 3.65.

For VPGTQVGQGGKKWDPSVQSCKEGL, which protein stability index is on record?
Its protein stability index is 4.37.

For VPGTQVGQGGKEWDPSVQSCKEGL, which protein stability index is on record?
The protein stability index was 3.97.

With VPGTQVGQGGKCWDPSVQSCKEGL as the variant, how does the protein stability index read?
Its protein stability index is 3.94.

With VPGTQVGQGGKVWDPSVQSCKEGL as the variant, how does the protein stability index read?
The protein stability index was 4.42.

With VPGTQVGQGGKHWDPSVQSCKEGL as the variant, how does the protein stability index read?
The protein stability index was 4.45.

Which protein stability index does the source give for VPGTQVGQGGKGWDPSVQSCKEGL here?
The protein stability index was 3.97.

With VPGTQVGQGGKMWDPSVQSCKEGL as the variant, how does the protein stability index read?
The protein stability index was 4.07.

With VPGTQVGQGGKSWDPSVQSCKEGL as the variant, how does the protein stability index read?
The protein stability index was 4.3.

With VPGTQVGQGGKTWDPSVQSCKEGL as the variant, how does the protein stability index read?
Its protein stability index is 4.34.

For VPGTQVGQGGKAWDPSVQSCKEGL, which protein stability index is on record?
The protein stability index was 3.4.

Which protein stability index does the source give for VPGTQVGQGGKFWDPSVQSCKEGL here?
Its protein stability index is 4.26.

Which protein stability index does the source give for VPGTQVGQGGKYWDPSVQSCKEGL here?
Its protein stability index is 3.79.

Which protein stability index does the source give for VPGTQVGQGGKRWDPSVQSCKEGL here?
Its protein stability index is 4.36.

For VPGTQVGQGGKNWDPSVQSCKEGL, which protein stability index is on record?
Its protein stability index is 4.42.

Which protein stability index does the source give for VPGTQVGQGGKPWDPSVQSCKEGL here?
The protein stability index was 5.07.

With VPGTQVGQGGKWWDPSVQSCKEGL as the variant, how does the protein stability index read?
The protein stability index was 4.01.

Which protein stability index does the source give for VPGTQVGQGGKLWDPTVQSCKEGL here?
Its protein stability index is 4.58.

Which protein stability index does the source give for VPGTQVGQGGKLWDPAVQSCKEGL here?
The protein stability index was 4.88.

For VPGTQVGQGGKLWDPLVQSCKEGL, which protein stability index is on record?
The protein stability index was 3.53.

With VPGTQVGQGGKLWDPDVQSCKEGL as the variant, how does the protein stability index read?
The protein stability index was 4.93.

Which protein stability index does the source give for VPGTQVGQGGKLWDPEVQSCKEGL here?
The protein stability index was 4.73.

With VPGTQVGQGGKLWDPFVQSCKEGL as the variant, how does the protein stability index read?
The protein stability index was 3.12.

With VPGTQVGQGGKLWDPVVQSCKEGL as the variant, how does the protein stability index read?
The protein stability index was 4.02.

For VPGTQVGQGGKLWDPKVQSCKEGL, which protein stability index is on record?
The protein stability index was 4.11.

With VPGTQVGQGGKLWDPHVQSCKEGL as the variant, how does the protein stability index read?
The protein stability index was 4.27.

With VPGTQVGQGGKLWDPQVQSCKEGL as the variant, how does the protein stability index read?
Its protein stability index is 4.38.

Which protein stability index does the source give for VPGTQVGQGGKLWDPMVQSCKEGL here?
Its protein stability index is 3.92.

Which protein stability index does the source give for VPGTQVGQGGKLWDPNVQSCKEGL here?
Its protein stability index is 3.89.

For VPGTQVGQGGKLWDPYVQSCKEGL, which protein stability index is on record?
The protein stability index was 3.68.

Which protein stability index does the source give for VPGTQVGQGGKLWDPRVQSCKEGL here?
The protein stability index was 3.12.

For VPGTQVGQGGKLWDPIVQSCKEGL, which protein stability index is on record?
Its protein stability index is 3.15.

With VPGTQVGQGGKLWDPWVQSCKEGL as the variant, how does the protein stability index read?
The protein stability index was 3.17.

With VPGTQVGQGGKLWDPPVQSCKEGL as the variant, how does the protein stability index read?
Its protein stability index is 4.45.

For VPGTQVGQGGKLWDPGVQSCKEGL, which protein stability index is on record?
The protein stability index was 4.21.

Which protein stability index does the source give for VPGTQVGQGGKLWDPCVQSCKEGL here?
Its protein stability index is 4.11.

For VPGTQVGQGGKLFDPSVQSCKEGL, which protein stability index is on record?
Its protein stability index is 4.59.

Which protein stability index does the source give for VPGTQVGQGGKLVDPSVQSCKEGL here?
Its protein stability index is 4.88.

With VPGTQVGQGGKLYDPSVQSCKEGL as the variant, how does the protein stability index read?
Its protein stability index is 4.57.

For VPGTQVGQGGKLQDPSVQSCKEGL, which protein stability index is on record?
Its protein stability index is 4.79.

For VPGTQVGQGGKLEDPSVQSCKEGL, which protein stability index is on record?
Its protein stability index is 5.29.

Which protein stability index does the source give for VPGTQVGQGGKLIDPSVQSCKEGL here?
Its protein stability index is 4.66.

For VPGTQVGQGGKLPDPSVQSCKEGL, which protein stability index is on record?
The protein stability index was 4.72.

With VPGTQVGQGGKLHDPSVQSCKEGL as the variant, how does the protein stability index read?
The protein stability index was 4.66.

With VPGTQVGQGGKLDDPSVQSCKEGL as the variant, how does the protein stability index read?
Its protein stability index is 4.4.

With VPGTQVGQGGKLNDPSVQSCKEGL as the variant, how does the protein stability index read?
Its protein stability index is 5.12.

For VPGTQVGQGGKLMDPSVQSCKEGL, which protein stability index is on record?
Its protein stability index is 4.41.

For VPGTQVGQGGKLADPSVQSCKEGL, which protein stability index is on record?
The protein stability index was 4.8.

Which protein stability index does the source give for VPGTQVGQGGKLRDPSVQSCKEGL here?
The protein stability index was 4.71.

With VPGTQVGQGGKLSDPSVQSCKEGL as the variant, how does the protein stability index read?
Its protein stability index is 4.54.

With VPGTQVGQGGKLTDPSVQSCKEGL as the variant, how does the protein stability index read?
The protein stability index was 4.79.

With VPGTQVGQGGKLLDPSVQSCKEGL as the variant, how does the protein stability index read?
The protein stability index was 4.8.

Which protein stability index does the source give for VPGTQVGQGGKLGDPSVQSCKEGL here?
The protein stability index was 5.5.

With VPGTQVGQGGKLKDPSVQSCKEGL as the variant, how does the protein stability index read?
The protein stability index was 4.61.

For VPGTQVGQGGKLCDPSVQSCKEGL, which protein stability index is on record?
Its protein stability index is 4.76.

Which protein stability index does the source give for VPGTQVGPGGKLWDPSVQSCKEGL here?
The protein stability index was 4.07.

With VPGTQVGYGGKLWDPSVQSCKEGL as the variant, how does the protein stability index read?
The protein stability index was 3.21.

For VPGTQVGVGGKLWDPSVQSCKEGL, which protein stability index is on record?
Its protein stability index is 4.04.

For VPGTQVGWGGKLWDPSVQSCKEGL, which protein stability index is on record?
The protein stability index was 3.67.

With VPGTQVGTGGKLWDPSVQSCKEGL as the variant, how does the protein stability index read?
The protein stability index was 3.56.

Which protein stability index does the source give for VPGTQVGRGGKLWDPSVQSCKEGL here?
The protein stability index was 4.34.

Which protein stability index does the source give for VPGTQVGKGGKLWDPSVQSCKEGL here?
Its protein stability index is 4.11.

With VPGTQVGMGGKLWDPSVQSCKEGL as the variant, how does the protein stability index read?
Its protein stability index is 3.97.

For VPGTQVGLGGKLWDPSVQSCKEGL, which protein stability index is on record?
Its protein stability index is 3.79.

With VPGTQVGSGGKLWDPSVQSCKEGL as the variant, how does the protein stability index read?
Its protein stability index is 3.71.

With VPGTQVGNGGKLWDPSVQSCKEGL as the variant, how does the protein stability index read?
The protein stability index was 4.24.
